This note sets out measurements from patent US20170304444A1 (Dana-Farber, published 2017).

The target in experiment [1] is T1, glucocorticoid-induced tumor necrosis factor receptor (GITR) (human, UniProt Q9Y5U5 26-241).
T1 construct: whole, on cells; also called GITR expressing 293T cells
T1 sequence (looked up): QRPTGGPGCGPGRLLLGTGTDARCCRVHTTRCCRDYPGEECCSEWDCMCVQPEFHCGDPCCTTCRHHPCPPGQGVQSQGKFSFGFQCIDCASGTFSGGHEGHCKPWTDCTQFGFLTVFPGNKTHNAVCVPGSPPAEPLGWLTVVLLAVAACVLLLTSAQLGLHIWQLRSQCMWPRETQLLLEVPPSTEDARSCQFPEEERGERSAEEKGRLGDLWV
Nature of the experiment: flow cytometry on GITR-expressing 293T cells, FITC anti-human Fc detection. On the technique in general: In flow cytometry, cells or beads pass a laser one at a time.

Experiment [2] concerns the target T2, glucocorticoid-induced tumor necrosis factor receptor (GITR) (human, UniProt Q9Y5U5 26-241).
T2 chain: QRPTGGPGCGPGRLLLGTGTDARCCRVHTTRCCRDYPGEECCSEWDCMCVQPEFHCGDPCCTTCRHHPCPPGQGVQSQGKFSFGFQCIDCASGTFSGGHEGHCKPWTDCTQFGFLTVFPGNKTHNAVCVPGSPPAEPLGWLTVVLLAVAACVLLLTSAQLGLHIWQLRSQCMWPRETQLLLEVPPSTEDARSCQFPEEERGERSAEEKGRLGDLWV
Nature of the experiment: flow cytometry, GITR-expressing 293T cells.

Experiment [3] concerns the target T2, glucocorticoid-induced tumor necrosis …. Nature of the experiment: BLI. In general terms: In BLI a coated tip is dipped into the sample, and binding shifts an interference pattern.

B1: mAb #13-169 (antibody, V domains shown)
VH: EVQLVQSGAEVKRPGASLKVSCKASGYTFTSHYIHWVRQAPGQGLEWMGWINTGNGDTRYSQRFQGRVTVTRDTSASTVYMELSSLRSEDTAVYYCARESSSSWFVAFDVWGQGTTVTVSS
VL: QPVLTQPPSVSLAPGQTARITCSEKNIRSKRVHWYQQKPGQAPVLVMYSDNGRRSGIPDRFSGSNSGNTATLTITRVEAGDEGDFYCQVWDPITDQVVFGGGTKLTVLG
B1: the binding result in experiment [1] is on record as “binds”. In experiment [2], the EC50 was found to be 47 nM. The molecule also gave a Kd in experiment [3] of 3.21 nM.

B2: mAb #10-116 (antibody, V domains shown)
VH: EVQLVQSGADVKKPGASVKVSCKASGYTFTGYYIHWVRQAPGQGLEWMGWINPNSGGTNYAQKFQGRVTMTRDTSISTAYMELSRLRSDDTAVYFCVREVKDYYYYMDVWGRGTTVTVSS
VL: NFMLTQPHSVSESPGKTVTISCTRSSGSIASNSVQWYLQRPGSAPTTLIFDNKQRPSGVPDRFSGSIDSSSNSASLSISGLTTEDEADYFCQSYDDSEQVVFGGGTKLTVLS
B2: the binding result in experiment [1] is reported as “binds”. This molecule showed an EC50 in experiment [2] of 28.3 nM. In experiment [3], this molecule came in with a Kd of 4.77 nM.

B3: mAb #7-192 (antibody, V domains shown)
VH: EVQLVESGAEVKKPGASVKVSCKTSGYTFTDHYIHWVRQAPGQGLEWMGWINPSSGGTEYAQKFQGRVTMTRDTPISTAYMDLSGLRSDDTAVYYCARETIGGWNALDVWGQGTLVTVSS
VL: MPVLTQPPSVSVAPGQTARITCGGHKIGTKSVHWYQQKPGQAPVLVVYDDRDRPSGIPERFSGSNSGGTATLTISRVEAGDEADYYCQVWDSNSDHVVFGGGTKLTVLS
B3: in experiment [1], the binding result is “binds”. This molecule showed an EC50 in experiment [2] of 19.3 nM. This molecule yielded a Kd in experiment [3] of 3.13 nM.

B4: mAb #5-139 (antibody, V domains shown)
VH: EVQLVQSGAEVKKPGASVKVSCKTSGYTFTDHYIHWVRQAPGQGLEWMGWINPSSGGTEYAQKFQGRVTMTRDTPISTAYMDLSGLRSDDTAVYYCARETIGGWNALDVWGQGTTVTVSS
VL: QSVLTQPPSASGSPGQRVTMSCSGSSSTIGRHSVNWYQQLPGTAPKLLIYANNQRPSGVPGRFSASKSDTSASLAISGLRSEDEANYYCAAWDDSLSGVLFGGGTKVTVLG
Take B4: in experiment [1], the binding result was “binds”. In experiment [2], this molecule returned a 50% effective concentration (EC50) of 16.8 nM. The Kd in experiment [3] was found to be 0.42 nM.

B5: mAb #17-60 (antibody, V domains shown)
VH: EVQLVESGAEVKKPGASVKVSCKTSGYTFTDHYIHWVRQAPGQGLEWMGWINPSSGGTEYAQKFQGRVTMTRDTPISTAYMDLSGLRSDDTAVYYCARETIGGWNALDVWGQGTLVTVSS
VL: QPVLTQPPSASGTPGQRVTISCSGSSSNIGINTVNWYQQLPRTPPKLLIYTNNQRPSGVPDRFSGSKSDTSASLAISGLQSEDEADYYCAAWDDTLNGPLFGGGTKVTVLG
B5: it took 15.1 nM to reach a half-maximal effect in experiment [2] (EC50). The same molecule yielded a Kd in experiment [3] of 1.14 nM.

B6: mAb #1-81 (antibody, V domains shown)
VH: EVQLVESGAEVKKPGASVKVSCKTSGYTFTDHYIHWVRQAPGQGLEWMGWINPSSGGTEYAQKFQGRVTMTRDTPISTAYMDLSGLRSDDTAVYYCARETIGGWNALDVWGQGTLVTVSS
VL: QPVLTQPPSASGTPGQRVTISCSGSSSNIGINTVNWYQQLPRTPPKLLIYTNNQRPSGVPDRFSGSKSDTSASLAISGLQSEDEADYYCAAWDDTLNGPLFGGGTKVTVLG
notes: Found as scFv by phage display
As to B6, the binding result in experiment [1] was “binds”. For the same molecule, in experiment [2], the EC50 was 22.4 nM. In experiment [3], the Kd was 1.66 nM.

B7: mAb 3-167 (antibody, V domains shown)
VH: EVQLVQSGSELKKPGASVKVSCKASGYTFTGYYMHWVRQAPGQGLEWMGWINPNSGGTNYAQKFQGRVTVTTDTSTSTAYMELRSLRSDDTAVYYCAREGVHSDAFDVWGQGTTVTVSS
VL: ETTLTQSPATLSVSPGERATLSCRASQSVYTNLAWYQQKPGQAPSLLIYGASSRATGIPDRFSGSGSGTDFTLTISRLEPEDFAVYYCQQYGSSHFTFGPGTKVDIK
B7: the binding result in experiment [1] is “binds”. The same molecule yielded an EC50 in experiment [2] of 28.2 nM. The molecule further had a Kd in experiment [3] of 0.855 nM.

B8: mAb #14-182 (antibody, V domains shown)
VH: QVQLVQSGAEVKQPGSSVKVSCKASGYTFTGYYMHWVRQAPGEGLEWLGWINPHSGGTNYAQKFQGRVTITADKSTSTAYMELSSLRSEDTAVYYCAREIVVVTAPAAAAMDVWGQGTLVTVSS
VL: QSVLTQPPSASGSPGQSVTISCTGSSSDVAIYDRVSWYQQPPGTAPKLILYDVHDRPSGVPDRFSGSKSGNTASLTISGLQAEDEADYYCSSYTTSGTFVFGSGTKVTVLG
B8: the binding result in experiment [1] is given as “binds”. The same molecule yielded an EC50 in experiment [2] of 20.5 nM. The affinity in experiment [3], expressed as Kd, was 1.82 nM.

B9: mAb #12-46 (antibody, V domains shown)
VH: EVQLVQSGAEVKKPGASVKVSCKASGYTFTGYYMHWVRQAPGQGLEWMGWINPKTGDTNYAQKFQGRVALSRDTSFNTAYMDLSSLRSDDTAVYYCAREGLSTSSPLDYWGQGTLVTVSS
VL: QPGLTQPPSVSVAPGQSAKITCGENELATNIVHWYQQKPGQAPVLVIYHDNDRPSGIPERFSGSNAGNTATLTISRVEAGDEADFYCQLWDSASDQVVFGGGTTLTVLG
As to B9, the binding result in experiment [1] is on record as “binds”. In experiment [2], the EC50 is 72.4 nM. Also, binding in experiment [3] was characterised by a dissociation constant (Kd) of 5.07 nM.

B10: mAb #11-126 (antibody, V domains shown)
VH: EVQLVESGAEVKKPGASVKVSCKASGYTFTGYYMHWVRQAPGQGLEWLGWVNPHSGGTNYAQKFQGRVTMTRDTSISTAYMELSRLRSDDTAVYYCARETDISANYHFDYWGQGTLVTVSS
VL: QSALTQPASVSGSPGQSITISCTGTSSDVGSYNAVSWYQHHPGKAPKLMIYEVSKRPSGVSNRFSGSKSGNTASLTISGLRAEDEADYYCATWDDSLKGPVFGGGTKLTVLG
For the molecule B10, in experiment [1], the binding result is recorded as “binds”. The EC50 in experiment [2] stood at 13 nM. For the same molecule, in experiment [3], the affinity, expressed as Kd, was 2.8 nM.

B11: mAb #15-68 (antibody, V domains shown)
VH: EVQLVQSGAEVKKPGASVNVSCKASGYTFTGYYMHWVRQAPGQGLEWMGWINPNSGGTNYAQKFQGRVTVTTDTSNSTAYMELNRLKSDDTAVYYCAREGSGDLDSLYMDVWGKGTMVTVSS
VL: SYELTQPPSVSVAPGQTARITCGANNIGSKSVHWYQQKPGQAPVLVVYDDSDRPSGIPERFSGSNSGNTATLTITRVEAGDEADYYCQLWDGGSDVVFGGGTKLTVLG
On to B11, for which the EC50 in experiment [2] amounted to 26.5 nM. In experiment [3], this molecule registered a Kd of 3.81 nM.

What is called EC50 is the concentration needed to bring the measured effect to its halfway point. Higher therefore signals lower potency in that assay. The term Kd denotes the equilibrium constant for the complex coming apart. Low readings indicate a tighter complex, high ones a looser complex.
